# Results from the supplement of paper PMC7125110.
# ± gives the standard error. Variants at the floor of the assay were thinned out.
# B1: glmS ribozyme (parent)
# chain: AUAAAAGCGCCAGAACUACAGAAAUGUAGUUGACGAGGAGGAGGUUUAUCGAAUUUUCGGCGGAUGCCUCCAAA
# Variants of: B1
# Experiment: self-cleavage kobs at 10000 uM GlcN6P; higher = faster cleavage; RNA array
# Conditions: with glucosamine-6-phosphate
# Procedure, shortened: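 Barcoded ribozyme variants on sequenced MiSeq chips were transcribed in situ by E. coli RNA polymerase and followed at 37 °C through a hybridised Cy3 probe. Glucosamine-6-phosphate at 40 μM to 10 mM in HEPES/KCl/Mg(OAc)2 buffer was flowed in, and tiles were imaged over ~14 h. Signals were normalised to baseline and to non-cleaving reference variants, and per-tile medians were fit to one- or two-exponential decays to give kobs. Weighted Michaelis–Menten fits across concentrations gave kcat and KM.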
row,Variant,self-cleavage kobs at 10000 uM GlcN6P
1,U46A C50A G59U,< 1e-05 s⁻¹
2,G13U G37C G43C,< 1e-05 s⁻¹
3,C10U U49G C58G,< 1e-05 s⁻¹
4,C10U C16U A39C U65C,< 1e-05 s⁻¹
5,A39C G59A C68A,< 1e-05 s⁻¹
6,A12U C16A G35A A42C G59U C71U,< 1e-05 s⁻¹
7,G21U G41C C70U,0.000298 ± 8.1e-05 s⁻¹
8,A33C A39G U69G,< 1e-05 s⁻¹
9,U30C U54G C67G,2.88e-05 ± 1.3e-05 s⁻¹
10,A6U A12U A53G C67G,8.82e-05 ± 1.8e-05 s⁻¹
11,U31A A39G U55C,0.0297 ± 0.011 s⁻¹
12,A36C G41U C50G G60U C61G,< 1e-05 s⁻¹
13,G59C G66A,< 1e-05 s⁻¹
14,C10U U55C G62U,< 1e-05 s⁻¹
15,A14U U45G C61U,< 1e-05 s⁻¹
16,A33U U47A,9.99e-05 ± 1.7e-05 s⁻¹
17,U31C G38C U45A C50A C58U,< 1e-05 s⁻¹
18,A33U A39C A48C,< 1e-05 s⁻¹
19,A33U A42C U49A C58G C61G,< 1e-05 s⁻¹
20,A6U U45G U46C,4.58e-05 ± 1.7e-05 s⁻¹
21,G7A U30G A33G U69G,0.000162 ± 2.9e-05 s⁻¹
22,A15U C16A A39U,0.000273 ± 6.1e-05 s⁻¹
23,G13A G32C U69G,5.76e-05 ± 2.1e-05 s⁻¹
24,A12C C16U A53C G63A,< 1e-05 s⁻¹

row,Variant,self-cleavage kobs at 10000 uM GlcN6P
1,G7U G32U G59C G62U U65G,< 1e-05 s⁻¹
2,G9U A42U U55G,< 1e-05 s⁻¹
3,A14G G37C U45A U49C G59U,< 1e-05 s⁻¹
4,A12C A39U A48C,4.14e-05 ± 1e-05 s⁻¹
5,A36G A53C C67A,< 1e-05 s⁻¹
6,A39U A52G C67G,0.00016 ± 3.6e-05 s⁻¹
7,A14C G44C A52C U65A,< 1e-05 s⁻¹
8,G40A C67A C70A,0.0001 ± 2.9e-05 s⁻¹
9,C8U G32C A36C G38C,< 1e-05 s⁻¹
10,C16A U31A C71G,4.01e-05 ± 1.1e-05 s⁻¹
11,A14U A36U C50U C70A,7.4e-05 ± 2.1e-05 s⁻¹
12,A42G U46A A64G,0.00462 ± 0.0009 s⁻¹
13,G44U G66C C71A,< 1e-05 s⁻¹
14,A39U G44A C67G,0.00582 ± 0.0014 s⁻¹
15,A15C A64G C67G C68U,< 1e-05 s⁻¹
16,A12G G40A U55C,9.22e-05 ± 2e-05 s⁻¹
17,G38A U49A G66U,< 1e-05 s⁻¹
18,A6G G35C U46C,< 1e-05 s⁻¹
19,G29U U56C,0.000483 ± 0.00016 s⁻¹
20,U30G G37C U45A A52G,< 1e-05 s⁻¹
21,A12U G41A U54C,0.000963 ± 0.00021 s⁻¹
22,A12C U49A G66C C71U,< 1e-05 s⁻¹
23,A33U G41C A52U A53C,< 1e-05 s⁻¹
24,U49A U65G C67G U69A,< 1e-05 s⁻¹

row,Variant,self-cleavage kobs at 10000 uM GlcN6P
1,G9A A12U C70G,< 1e-05 s⁻¹
2,A39G A53C C71A,0.00202 ± 0.00063 s⁻¹
3,C50A G59C C70U,< 1e-05 s⁻¹
4,C19U C68U,0.00423 ± 0.0011 s⁻¹
5,G32A U45G U47A,0.000614 ± 0.00014 s⁻¹
6,C11A A53C,2.2e-05 ± 1.1e-05 s⁻¹
7,G40U A48G C70A,3.93e-05 ± 9.6e-06 s⁻¹
8,A33U U45A U46G,0.000433 ± 5.7e-05 s⁻¹
9,U30C G38A G63C U69C,< 1e-05 s⁻¹
10,A6C U30G G35U,< 1e-05 s⁻¹
11,C16A U31G C67U,6.54e-05 ± 1.4e-05 s⁻¹
12,G51C G60U C71A,< 1e-05 s⁻¹
13,A14U A48C U55A,3.3e-05 ± 1.5e-05 s⁻¹
14,U31C U57C,5.52e-05 ± 1.3e-05 s⁻¹
15,C10A A36U G59A G60A,< 1e-05 s⁻¹
16,C11A A14G C34U G66C,< 1e-05 s⁻¹
17,C11A A15G U57A G62U,< 1e-05 s⁻¹
18,G35C C50G A53C,3.34e-05 ± 8.6e-06 s⁻¹
19,U31A U46G,0.00387 ± 0.0007 s⁻¹
20,G43A A53U G59C G60U,< 1e-05 s⁻¹
21,A12G C58A C70G,3.02e-05 ± 1.3e-05 s⁻¹
22,G38C U49A G51U C71U,< 1e-05 s⁻¹
23,A6G C50G C68G,2.86e-05 ± 1.1e-05 s⁻¹
24,A6G G29A G60C G63C,< 1e-05 s⁻¹

row,Variant,self-cleavage kobs at 10000 uM GlcN6P
1,U49G G60A C61G G62U,< 1e-05 s⁻¹
2,A12C A52U C67G,0.000146 ± 3.5e-05 s⁻¹
3,A14G A15G U47C U55A C70G,0.000483 ± 0.00014 s⁻¹
4,A42G A48U U55G,0.000404 ± 8.1e-05 s⁻¹
5,A36C G38U A39C G62U,< 1e-05 s⁻¹
6,A6C A36U U69A,< 1e-05 s⁻¹
7,C16G A36C C58U C70G,4.92e-05 ± 2.2e-05 s⁻¹
8,A15G C16U U47C U65A U69C,6.04e-05 ± 2.9e-05 s⁻¹
9,A36C C61A,< 1e-05 s⁻¹
10,G9C G13C A14U U31A A48G C61A,< 1e-05 s⁻¹
11,A6C G7C G32A A52U,< 1e-05 s⁻¹
12,C16U A53U U65G,0.00246 ± 0.00058 s⁻¹
13,G32C U56A C71A,3.09e-05 ± 1.5e-05 s⁻¹
14,G9A A39C G41A A48C U49A,< 1e-05 s⁻¹
15,U31C C58A G63U,< 1e-05 s⁻¹
16,A14G C34A G38A C67A,< 1e-05 s⁻¹
17,A6G G7A C16G U47A A53C C58A,< 1e-05 s⁻¹
18,A14U A15C C68U,6.11e-05 ± 2e-05 s⁻¹
19,C11A A52G,3.16e-05 ± 9.6e-06 s⁻¹
20,U49A C61A,< 1e-05 s⁻¹
21,C10A C50U G59A,< 1e-05 s⁻¹
22,G9U A36G G43U U55G C68U,< 1e-05 s⁻¹
23,A6U C11G G41C G62A G66U,< 1e-05 s⁻¹
24,G35C G43C,< 1e-05 s⁻¹

row,Variant,self-cleavage kobs at 10000 uM GlcN6P
1,U30G G35U G43C,< 1e-05 s⁻¹
2,A14C U30G A33G G37A C68G,< 1e-05 s⁻¹
3,G38C G44C A53U G62C,< 1e-05 s⁻¹
4,C10A A15C A42C U55G C68U,< 1e-05 s⁻¹
5,C58U G59A,< 1e-05 s⁻¹
6,C8G G51U U69G,0.00122 ± 0.00049 s⁻¹
7,G29U G60A C61A,< 1e-05 s⁻¹
8,A6U U45G G66A,0.000175 ± 4.1e-05 s⁻¹
9,A12U U46G A48G,9.42e-05 ± 2.1e-05 s⁻¹
10,A12C G62U C71U,< 1e-05 s⁻¹
11,G9U G62U,< 1e-05 s⁻¹
12,A39U C67A C70U,0.00654 ± 0.0014 s⁻¹
13,C8G C61G C70A,< 1e-05 s⁻¹
14,A42C G44U G66U,< 1e-05 s⁻¹
15,G13U C34U G63U,< 1e-05 s⁻¹
16,A15C U31A G38C G41C,< 1e-05 s⁻¹
17,G32A G40A C68G,< 1e-05 s⁻¹
18,A42G U55C G60A,4.43e-05 ± 1.7e-05 s⁻¹
19,A39G U49G,0.000904 ± 0.00021 s⁻¹
20,U65G G66U C70A,6.2e-05 ± 1.7e-05 s⁻¹
21,G32C A48C U55C G59A G63A,< 1e-05 s⁻¹
22,A14G U49G U55C,0.00199 ± 0.00057 s⁻¹
23,G7U G29U G32A A42U U55C G62C,< 1e-05 s⁻¹
24,G9A C16G G51A G60U,< 1e-05 s⁻¹

row,Variant,self-cleavage kobs at 10000 uM GlcN6P
1,C16U G37A U65G,0.000183 ± 3.8e-05 s⁻¹
2,A15U C58U G59U,< 1e-05 s⁻¹
3,G32C G38U A42C G43C A52C,< 1e-05 s⁻¹
4,U30C G40A U56A G62C,< 1e-05 s⁻¹
5,C16G C50A U56C U69G,< 1e-05 s⁻¹
6,G32C A36C G51C,< 1e-05 s⁻¹
7,G44C C70U C71A,< 1e-05 s⁻¹
8,U56G G60C,< 1e-05 s⁻¹
9,C11G G13U C61G,< 1e-05 s⁻¹
10,A36C U57A,< 1e-05 s⁻¹
11,G29U A53C G60A,< 1e-05 s⁻¹
12,A12G A39C G66U,6.62e-05 ± 1.8e-05 s⁻¹
13,C10U A12G G13U A14C G41A,< 1e-05 s⁻¹
14,A12U G43U U46A,4.1e-05 ± 1.8e-05 s⁻¹
15,A6G U54A U56A,0.000141 ± 2.8e-05 s⁻¹
16,A15C C16A G37U G40U G62U C70A,< 1e-05 s⁻¹
17,C58A G60C,< 1e-05 s⁻¹
18,C10U G43U G60U,< 1e-05 s⁻¹
19,A12U U31G U55C U65A,0.0008 ± 0.00013 s⁻¹
20,A12G U46C,0.000349 ± 5.9e-05 s⁻¹
21,A12G G37A G43A A52G,< 1e-05 s⁻¹
22,U57G G62C,< 1e-05 s⁻¹
23,G38C C50A,< 1e-05 s⁻¹
24,A39U G66U C67A,0.00316 ± 0.00061 s⁻¹

row,Variant,self-cleavage kobs at 10000 uM GlcN6P
1,G38C A42G A64G,< 1e-05 s⁻¹
2,G40U G43U G62A,< 1e-05 s⁻¹
3,A14U G40A U54A,0.000245 ± 8.4e-05 s⁻¹
4,A5U C8G G9U U30C,< 1e-05 s⁻¹
5,C11A A12C U31C U49A,< 1e-05 s⁻¹
6,G44A U46A,0.000375 ± 6.2e-05 s⁻¹
7,C10U A42G,3.17e-05 ± 7.6e-06 s⁻¹
8,C10G U55C,< 1e-05 s⁻¹
9,C10U C50G A53U U54G U55C C68G,6.48e-05 ± 2e-05 s⁻¹
10,C8G A15U A39U G51A A52G G60U,< 1e-05 s⁻¹
11,A6U G44U C71A,< 1e-05 s⁻¹
12,U54A G66A C68A,9.65e-05 ± 1.7e-05 s⁻¹
13,C8A A14G C70G,< 1e-05 s⁻¹
14,C10G U57G C67A,< 1e-05 s⁻¹
15,A15G U49G G60A,< 1e-05 s⁻¹
16,C11G C61G,< 1e-05 s⁻¹
17,G7A A64G,4.09e-05 ± 9.6e-06 s⁻¹
18,A33G A42G G59U C61A,< 1e-05 s⁻¹
19,A52U U65A,2.95e-05 ± 9.7e-06 s⁻¹
20,A33G A42C U47C G60A,< 1e-05 s⁻¹
21,G29C U45A U46A A52U,3.37e-05 ± 1.4e-05 s⁻¹
22,C10A A36U A39U,< 1e-05 s⁻¹
23,U31A A33G C67A,< 1e-05 s⁻¹
